# Laboratory results as given in paper doi:10.1101/2021.07.14.452313.
# pKd: −log10 of the molar value.
# Target: biotinylated hACE2-fc (residues 18-740) (human) (UniProt Q9BYF1)
# Assay: SPR
# Sequence of UniProt Q9BYF1 (Q9BYF1 18-740): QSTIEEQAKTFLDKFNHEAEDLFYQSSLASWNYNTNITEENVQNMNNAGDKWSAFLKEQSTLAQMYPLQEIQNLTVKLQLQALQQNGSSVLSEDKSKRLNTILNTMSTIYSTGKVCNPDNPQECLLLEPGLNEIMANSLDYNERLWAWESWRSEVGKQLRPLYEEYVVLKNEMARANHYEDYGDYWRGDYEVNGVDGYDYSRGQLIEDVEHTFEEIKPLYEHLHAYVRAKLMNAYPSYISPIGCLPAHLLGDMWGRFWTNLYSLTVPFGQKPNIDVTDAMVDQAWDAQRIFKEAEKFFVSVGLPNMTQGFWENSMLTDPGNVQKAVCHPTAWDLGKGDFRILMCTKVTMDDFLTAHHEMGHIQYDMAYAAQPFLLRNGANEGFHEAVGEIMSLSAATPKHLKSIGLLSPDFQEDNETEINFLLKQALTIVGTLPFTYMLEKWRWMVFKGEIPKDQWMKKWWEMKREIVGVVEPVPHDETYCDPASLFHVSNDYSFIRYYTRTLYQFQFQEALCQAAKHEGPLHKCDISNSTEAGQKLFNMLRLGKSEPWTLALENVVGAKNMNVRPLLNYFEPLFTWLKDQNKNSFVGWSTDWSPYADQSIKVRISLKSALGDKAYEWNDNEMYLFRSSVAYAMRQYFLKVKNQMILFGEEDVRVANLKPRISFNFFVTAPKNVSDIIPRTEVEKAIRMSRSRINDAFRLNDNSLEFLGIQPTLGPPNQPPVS
Substance,"KD1 (first step, two state fit) [nM]",pKd,"ka1 (first step, two state fit) [M⁻¹ s⁻¹]","ka2 (second step, two state fit) [M⁻¹ s⁻¹]","kd1 (first step, two state fit) [s⁻¹]","kd2 (second step, two state fit) [s⁻¹]"
SARS-CoV-2 wt trimeric spike protein (domain or fragment),1.8,10.39,782000,0.0105,0.00141,0.000244
SARS-CoV-2 B.1.1.7 trimeric spike protein (domain or fragment),193,10.40,1.31e+06,0.053,0.025,0.00011
